Assay results reported in the supplement of paper PMC10567573.

B1: NET1 (parent)
chain: IKRTIRVLDVNNQSFREQEEPSNK
B2: DYRK1B (parent)
chain: YQGPGTRRLQEVLGVQTGGPGGRR

Variants of: B1
Assay: protein stability index of a GFP-peptide fusion (GPS, HEK-293T) (PSI 1-6); higher = more stable
Conditions: c terminus: a fixed tail appended
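Further: lentivirally expressed fusions sorted by FACS into six bins by GFP to DsRed ratio, PSI derived from sequencing read proportions per bin multiplied by bin number.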

Variant	protein stability index
V10D	4.83
F15S	4.3
Q13K	3.7
E20V	3.04
I5R	4.82

Variants of: B2
Assay: as above
Conditions: c terminus: a fixed tail appended

Variant	protein stability index
T17G	3.66
T17D	3.45
T17L	3.3
T17R	2.8
T17V	3.62
T17I	2.75
T17A	3.27
T17M	3.24
Y1L	4.32
Y1C	4.48
Y1T	4.72
Y1W	3.9
Y1H	4.78
Y1A	4.7
Y1D	4.91
Y1S	4.96
Y1G	4.41
Y1K	3.84
Y1R	4.22
R24F	2.49
R24K	3.12
R24T	3.02
R24Q	3.06
R24I	3.75

Variant	protein stability index
R24D	3.51
R24W	2.73
R23I	2.75
R23A	4.05
R23V	2.88
R23K	2.55
R23M	3.27
R23G	3.01
R23Y	2.67
R23H	3.1
R23T	3.23
R23W	2.22
R8E	4.51
R8S	3.73
R8V	2.66
R8M	2.35
R8H	4.21
R8I	2.75
R8Q	3.67
R8K	2.9
E11P	2.73
E11A	2.57
E11F	1.51
E11R	2.88

Variant	protein stability index
E11I	1.97
E11Y	2.97
E11N	2.98
E11G	3.78
E11S	3
E11W	1.55
L9W	1.36
L9D	3.94
V15F	3.62
V15A	3.69
G3V	2.38
G3D	3.83
G3I	2.98
G3C	3.58
G3K	2.79
G3M	3.03
Q2N	2.26
Q2I	2.52
Q2S	1.83
Q2C	2.66
Q2T	3.12
Q2G	3.39
Q2M	3.83
Q2R	3.87

Variant	protein stability index
G18E	3.52
G18A	3
G18S	3.15
G18V	3.06
G18P	2.84
Q16M	2.98
Q16V	2.61
Q16L	2.96
Q16A	2.81
Q16F	2.01
Q16R	3.09
P20R	3.39
P20T	3.32
P20L	2.82
P20M	3.02
P20C	3.49
L13N	3.85
L13D	3.93
L13E	4.44
G14I	2.14
G14W	2.11
G14E	3.73
G14N	4.25
G14M	3.25

Variant	protein stability index
G14V	3.14
G14P	4.17
G19C	2.87
G19K	3.43
G19Y	2.9
G19E	3.63
G19R	2.47
G19H	2.98
G19I	2.85
P4K	2.63
P4F	1.68
P4V	3.14
P4A	3.01
P4C	2.29
P4R	2.78
P4M	1.91
P4W	1.76
G21S	3.04
G21P	3.17
G21F	2.93
G21T	2.98
G21H	3.33
G21V	2.2
Q10M	2.82

Variant	protein stability index
Q10G	1.96
Q10Y	2.25
Q10S	3.57
Q10A	1.95
Q10P	4.21
Q10L	2.28
R7Y	3.1
R7G	3.37
R7E	4.05
R7M	3.21
R7F	2.04
R7K	3.06
R7T	3.54
R7Q	3.76
R7D	3.7
G22A	3.13
G22P	3.48
G22N	3.44
G22L	2.94
G22W	3.01
T6D	3.79
T6R	3.51
T6K	2.33
T6E	3.47

Variant	protein stability index
T6M	3.28
T6L	2.37
T6H	2.67
T6Y	1.77
T6P	3.04
V12L	3.19
V12G	3.32
V12C	3.26
V12Y	3.05
V12F	2.94
V12D	4.34
G5Y	2.34
G5S	3.42
G5H	3.17
G5M	2.46
G5C	3.38
G5D	3.69
G5A	3.44
